Assay results taken from patent US20160115200A1, “New Use for JNK Inhibitor Molecules for Treatment of Various Diseases” (XIGEN INFLAMMATION LTD., priority 2013, published 2016).

Experiments:
Test in all cases: kinase inhibition
[1] = molecular target: His-JNK3 (ref 14-501, Upstate) (UniProt P53779)
[2] = molecular target: His-JNK2 (ref 14-329, Upstate) (UniProt P45984)
[3] = molecular target: His-JNK1 (ref 14-327, Upstate) (UniProt P45983)
Chain of His-JNK1 (ref 14-327, Upstate) (P45983 other isoform, or with tags, fused parts or gaps): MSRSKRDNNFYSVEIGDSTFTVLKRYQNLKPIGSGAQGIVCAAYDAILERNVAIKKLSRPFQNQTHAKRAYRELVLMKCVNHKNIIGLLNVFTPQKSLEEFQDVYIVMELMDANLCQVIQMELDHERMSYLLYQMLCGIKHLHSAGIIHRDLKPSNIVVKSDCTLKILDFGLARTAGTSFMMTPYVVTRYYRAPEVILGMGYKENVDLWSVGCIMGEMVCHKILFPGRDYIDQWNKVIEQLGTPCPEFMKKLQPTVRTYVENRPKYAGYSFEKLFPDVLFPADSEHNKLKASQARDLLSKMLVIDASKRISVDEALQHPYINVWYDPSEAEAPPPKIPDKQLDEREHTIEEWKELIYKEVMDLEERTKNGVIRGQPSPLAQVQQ

Chain of His-JNK3 (ref 14-501, Upstate) (P53779 other isoform, or with tags, fused parts or gaps): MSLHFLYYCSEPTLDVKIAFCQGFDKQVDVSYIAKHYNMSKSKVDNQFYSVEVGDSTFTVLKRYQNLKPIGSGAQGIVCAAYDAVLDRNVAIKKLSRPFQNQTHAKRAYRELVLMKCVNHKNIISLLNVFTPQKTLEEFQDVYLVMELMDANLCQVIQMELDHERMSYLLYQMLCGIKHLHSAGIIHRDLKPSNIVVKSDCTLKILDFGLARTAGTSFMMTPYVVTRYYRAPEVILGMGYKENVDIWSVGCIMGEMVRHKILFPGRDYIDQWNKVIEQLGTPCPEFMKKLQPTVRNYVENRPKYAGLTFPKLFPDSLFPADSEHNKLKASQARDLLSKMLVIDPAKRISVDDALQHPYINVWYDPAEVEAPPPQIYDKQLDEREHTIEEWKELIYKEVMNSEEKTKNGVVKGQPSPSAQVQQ

Substance: D-TAT-IB1
- IC50 [1]: 1290 nM
- IC50 [2]: 802 nM
- IC50 [3]: 24400 nM
